# According to US20250108100A1, “C-TERMINAL FRAGMENT OF APOLIPOPROTEIN E AND APPLICATION THEREOF IN INHIBITING y-SECRETASE ACTIVITY” (SYNPHATEC (SHANGHAI) BIOPHARMACEUTICAL TECHNOLOGY CO., LTD., priority 2022, published 2025):
# System: human APP and β-secretase co-expressed in HEK 293T cells
# Assay: HEK 293T cells co-expressing APP and β-secretase (BACE1): Aβ ELISA and β-CTF Western blot
# Assay type: cell-based
# Settings: APP and β-secretase co-expressed, ELISA, vs GFP control
# Experimental: The experiment was performed according to the standard procedure in the ELISA analysis kit of Invitrogen Company. • a) The target protein was expressed in HEK 293T cell line. Cells were subcultured one day before transfection, and transfection was performed when the degree of cell adhesion reached 70%-80%. The transfection reagent was lipofectamine2000 (ThermoFisher). • b) 4-6 hours post transfection, medium were replaced with fresh cell culture medium. • c) 36-48 hours post transfection, the cell culture medium was collected, and then the ELISA process was performed or the cell culture medium was frozen in a −80° C. refrigerator. • d) 50 μl of standard samples and experimental samples were added to each well of the 96-well plate. • e) 50 μl of human-derived Aβ40 or Aβ42 or mouse-derived Aβ40 detection antibody was added to each well of the 96-well plate. • f) The above samples were shaken gently and placed at room temperature for 3 hours. • g) The liquid in the well were removed, and the plate was washed 4 times with 1× wash buffer. • h) 100 μl of the buffer containing 1× anti-Rabbit IgG HRP was added. • i) The plate was shaken gently and placed at room temperature for […]. • j) The liquid in the well were removed, and the well was washed 4 times with 1× wash buffer. • k) 100 μl of Stabilized Chromogen was added to each well, and the plate was placed in the dark for 30 minutes at room temperature. • l) 100 μl of Stop Solution was added to each well. • m) The absorbance at 450 nm was measured with a microplate reader. 2.4 qRT-PCR
# 48 hours after transfection of HEK 293T cells and N2A cells, or 4.5 days after lentivirus infection of neurons, media and lysates were collected. Aβ40 and Aβ42 in the culture medium and cell lysates were detected by an Aβ ELISA kit as indicated in the protocol. (Invitrogen Technology; KHB3481 for human Aβ40, KHB3441 for human Aβ42 and KMB3481 for mouse Aβ40).
# Data were analyzed by GraphPad Prism software (v6) using unpaired, paired, or one-sample t-tests. Aβ40 and Aβ42 levels were normalized to the corresponding GFP controls. α-CTF levels were normalized to FL-APP and corresponding GFP controls. All data are represented as mean±SEM. Statistical significance was defined as p<0.05. One, two, three and four stars (*) in the graph indicate p-values <0.05, <0.01, <0.001 and <0.0001, respectively.
row,Molecule,production of Aβ40
1,CT ND3CD11: SEQ ID NO: 26; ApoE CT minus 3 N-terminal and 11 C-terminal residues (protein) EEMGSRTRDRLDEVKEQVAEVRAKLEEQAQQIRLQAEAFQARLKSWFEPLVEDMQRQWAGLVEKVQAAVG,can still significantly reduce Aβ40
2,CT ND3CD20: SEQ ID NO: 31; ApoE CT minus 3 N-terminal and 20 C-terminal residues (protein) EEMGSRTRDRLDEVKEQVAEVRAKLEEQAQQIRLQAEAFQARLKSWFEPLVEDMQRQWAGL,can still significantly reduce Aβ40
3,CT ND4: SEQ ID NO: 21; ApoE CT with 4 N-terminal amino acids deleted (protein) EMGSRTRDRLDEVKEQVAEVRAKLEEQAQQIRLQAEAFQARLKSWFEPLVEDMQRQWAGLVEKVQAAVGTSAAPVPSDNH,can still reduce Aβ40
4,CT ND3CD10: SEQ ID NO: 25; ApoE CT minus 3 N-terminal and 10 C-terminal residues (protein) EEMGSRTRDRLDEVKEQVAEVRAKLEEQAQQIRLQAEAFQARLKSWFEPLVEDMQRQWAGLVEKVQAAVGT,can still significantly reduce Aβ40
5,CT ND3CD13: SEQ ID NO: 28; ApoE CT minus 3 N-terminal and 13 C-terminal residues (protein) EEMGSRTRDRLDEVKEQVAEVRAKLEEQAQQIRLQAEAFQARLKSWFEPLVEDMQRQWAGLVEKVQAA,can still significantly reduce Aβ40
6,CT ND3CD12: SEQ ID NO: 27; ApoE CT minus 3 N-terminal and 12 C-terminal residues (protein) EEMGSRTRDRLDEVKEQVAEVRAKLEEQAQQIRLQAEAFQARLKSWFEPLVEDMQRQWAGLVEKVQAAV,can still significantly reduce Aβ40
7,CT ND3CD15: SEQ ID NO: 30; ApoE CT minus 3 N-terminal and 15 C-terminal residues (protein) EEMGSRTRDRLDEVKEQVAEVRAKLEEQAQQIRLQAEAFQARLKSWFEPLVEDMQRQWAGLVEKVQ,can still significantly reduce Aβ40
8,CT ND3: SEQ ID NO: 20; ApoE CT with 3 N-terminal amino acids deleted (protein) EEMGSRTRDRLDEVKEQVAEVRAKLEEQAQQIRLQAEAFQARLKSWFEPLVEDMQRQWAGLVEKVQAAVGTSAAPVPSDNH,can still reduce Aβ40
9,CT ND3CD14: SEQ ID NO: 29; ApoE CT minus 3 N-terminal and 14 C-terminal residues (protein) EEMGSRTRDRLDEVKEQVAEVRAKLEEQAQQIRLQAEAFQARLKSWFEPLVEDMQRQWAGLVEKVQA,can still significantly reduce Aβ40
